Reference: patent US20040214331A1

Experiments:
[1] = biological target: synthetic HPV16 virus-like particles (L1 and L2) purified from CV-1 cells infected with pLC201VV (human papillomavirus type 16) (UniProt P03101); assay: ELISA, native VLPs coated in PBS pH 7.5
[2] = biological target: synthetic HPV16 virus-like particles (L1 and L2) purified from CV-1 cells infected with pLC201VV (human papillomavirus type 16) (UniProt P03101); assay: ELISA, denatured particles coated in carbonate buffer pH 9.6

UniProt P03101, sequence (P03101 whole entry, chain 1 of 2): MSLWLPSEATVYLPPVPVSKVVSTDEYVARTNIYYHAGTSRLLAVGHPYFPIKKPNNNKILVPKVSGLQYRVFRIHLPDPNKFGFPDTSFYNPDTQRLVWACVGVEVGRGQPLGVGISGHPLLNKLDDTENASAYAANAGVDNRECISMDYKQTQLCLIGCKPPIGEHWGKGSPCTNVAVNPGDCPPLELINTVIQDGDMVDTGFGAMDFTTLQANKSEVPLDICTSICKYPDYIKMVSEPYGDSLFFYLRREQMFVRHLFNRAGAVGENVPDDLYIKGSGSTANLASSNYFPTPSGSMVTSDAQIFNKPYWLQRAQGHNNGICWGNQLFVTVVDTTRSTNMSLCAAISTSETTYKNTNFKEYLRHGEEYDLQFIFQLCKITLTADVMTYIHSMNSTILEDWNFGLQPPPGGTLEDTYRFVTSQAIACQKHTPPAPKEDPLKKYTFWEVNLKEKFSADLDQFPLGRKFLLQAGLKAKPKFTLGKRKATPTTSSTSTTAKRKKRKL
UniProt P03101, sequence (P03107 whole entry, chain 2 of 2, further chain): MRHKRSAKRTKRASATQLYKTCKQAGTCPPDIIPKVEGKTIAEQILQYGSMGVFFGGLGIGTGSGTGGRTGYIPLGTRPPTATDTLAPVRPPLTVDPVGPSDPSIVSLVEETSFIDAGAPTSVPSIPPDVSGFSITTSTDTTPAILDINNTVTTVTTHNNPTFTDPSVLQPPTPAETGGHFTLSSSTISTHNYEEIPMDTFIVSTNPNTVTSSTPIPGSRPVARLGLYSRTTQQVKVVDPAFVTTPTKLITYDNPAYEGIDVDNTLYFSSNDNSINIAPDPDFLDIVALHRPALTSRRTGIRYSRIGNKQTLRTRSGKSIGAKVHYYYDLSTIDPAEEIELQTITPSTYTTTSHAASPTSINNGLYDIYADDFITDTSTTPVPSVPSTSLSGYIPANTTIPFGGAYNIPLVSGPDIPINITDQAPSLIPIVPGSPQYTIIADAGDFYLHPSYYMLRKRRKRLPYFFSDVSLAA

## anti-HPV16 L1 monoclonal antibody Camvir 1
[1]
  OD: 0.064 OD
[2]
  OD: 0.107 OD
